Data: patent US20240425556A1, “MYOPEPTIDES AND METHODS OF USE IN TREATING HEART FAILURE” (University of Cincinnati, priority 2021, published 2024)

B1: recombinant C0-C2 protein (C0, C1 and C2 domains of cardiac myosin binding protein-C) with 6X his-tag (other)
chain: MPEPGKKPVSAFNKKPRSAEVTAGSAAVFEAETERSGVMVRWQRDGSDITANDKYGLAAEGKRHTLTVRDASPDDQGSYAVIAGSSKVKFDLKVTEPAPPEKAESEVAPGAPEEVPAPATELEESVSSPEGSVSVTQDGSAAEHQGAPDDPIGLFLMRPQDGEVTVGGSIVFSARVAGASLLKPPVVKWFKGKWVDLSSKVGQHLQLHDSYDRASKVYLFELHITDAQTTSAGGYRCEVSTKDKFDSCNFNLTVHEAIGSGDLDLRSAFRRTSLAGAGRRTSDSHEDAGTPDFSSLLKKRDSFRRDSKLEAPAEEDVWEILRQAPPSEYERIAFQHGVEACHRPLKRLKGMKQDEKKSTAFQKKLEPAYQVNKGHKIRLTVELADPDAEVKWLKNGQEIQMSGSKYIFESVGAKRTLTISQCSLADDAAYQCVVGGEKCSTELFVKEP
B2: recombinant S2^126 (proximal 126 amino acid sub-fragment 2 region of myosin) with 6X his-tag (other)
chain: PLLKSAETEKEMANMKEEFGRVKDALEKSEARRKELEEKMVSLLQEKNDLQLQVQAEQDNLNDAEERCDQLIKNKIQLEAKVKEMTERLEDEEEMNAELTAKKRKLEDECSELKKDIDDLELTLAK
notes: The position of the his-tag is unknown; also called mouse myosin S2; not shown: 6X his-tag

Assays:
S2^126-C0-C2 binding = target: T1, S2^126-C0-C2 binding (Homo sapiens, UniProt Q14896); assay: Solid phase binding assay (SPBA), competition for S2^126-C0-C2 binding; settings: for ability to compete for S2^126-C0-C2 binding: SPBA, FIGS. 3A and 3B
T1 construct: 6X His; made in house; host or cells: E. coli BL21
T1 sequence (Q14896 1-451 limits assumed): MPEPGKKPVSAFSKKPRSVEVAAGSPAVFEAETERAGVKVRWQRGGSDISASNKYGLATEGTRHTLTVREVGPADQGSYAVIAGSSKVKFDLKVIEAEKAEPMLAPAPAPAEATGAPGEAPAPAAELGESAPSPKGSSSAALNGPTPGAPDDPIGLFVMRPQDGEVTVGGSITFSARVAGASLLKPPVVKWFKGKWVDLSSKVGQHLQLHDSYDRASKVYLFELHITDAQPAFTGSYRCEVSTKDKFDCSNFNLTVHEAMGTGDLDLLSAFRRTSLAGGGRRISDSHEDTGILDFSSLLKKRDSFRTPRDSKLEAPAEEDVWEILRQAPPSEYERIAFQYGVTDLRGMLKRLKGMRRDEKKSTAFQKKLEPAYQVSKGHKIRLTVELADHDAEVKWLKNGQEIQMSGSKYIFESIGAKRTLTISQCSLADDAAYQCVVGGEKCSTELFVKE
Description: Peptides of Table 1 were tested in vitro to determine whether they compete for binding in the interaction between S2^126 and the C0-C2 protein. In these experiments, recombinant S2^126 and C0-C2 protein with 6X his-tags were bacterially expressed in BL21 E. coli and then purified through Talon© metal affinity columns. A solid phase binding assay (SPBA) was then performed, whereby 20 μM of the C0-C2 protein was adsorbed onto wells of a 96-well microtiter plate. Then, 20 μM of S2^126, along with increasing concentrations of selected experimental peptides from Table 1, ranging from 0-20 μM, were added.
The following procedure identified the competitive nature of the tested experimental peptides from Table 1. […] The Alexa Fluor 568© secondary antibody (anti-rabbit) would then bind to the primary antibody to give a relative positive fluorescence of 1.0. Conversely, if the experimental peptide successfully competed with the S2^126-C0-C2 binding. then the S2^126 site would not be available for binding by the primary antibody. Therefore, the secondary antibody would also fail to bind, leading to a decrease in the relative fluorescence below 1.0. As a result, for a non-competing peptide, the relative fluorescence approaches 1.0, as observed by S2^126-C0-C2 binding. For a competing peptide, a decay in the relative fluorescence is observed. This SPBA assay was used to screen peptides for efficacy in disrupting the interaction between S2^126-C0-C2.

[1] = system: skinned papillary fibers from mouse hearts; assay: Maximal force (Fmax) of skinned papillary muscle fibers versus calcium concentration; settings: for effect on muscle / contractile function: summary statement
Description: The ability of the experimental peptides to increase or otherwise affect contractility in the heart muscle system was tested using skinned papillary fibers from mouse hearts. In this ex vivo experiment, cardiac papillary fibers from mouse hearts were isolated and skinned overnight in 1% Triton X-100 low calcium buffer supplemented with ATP, creatine phosphate, and magnesium chloride. Because skinned muscle fibers are devoid of sarcolemma, nuclei, and sarcoplasmic reticulum, the fibers can only contract if supplemented with calcium, magnesium chloride, ATP, and creatine phosphate. This assay allows for the opportunity to screen for compounds or molecules that affect the contractility of the muscle.
Skinned papillary muscle fibers were cycled through buffers containing a constant concentration magnesium chloride, ATP, creatine phosphate, but increasing concentrations of calcium. As the muscle fiber goes from buffers containing low concentrations of calcium to buffers containing high concentrations of calcium, the force developed increases with increasing concentration. Thus, plotting the force produced versus calcium concentration provides a sigmoidal curve, yielding the maximal force produced (Fmax) and the midpoint calcium concentration where the force produced is exactly half of the force produced at high calcium concentration. This is useful for measuring the calcium sensitivity (pCa50) of the muscle fibers.
The experiment and measurement of Fmax, pCa50, and ktr was performed for a muscle in the absence of the experimental peptide and then in the presence of 10 μM and 20 μM of the experimental peptide.

[2] = target: cardiac myosin binding protein-C (cMyBP-C) in skinned papillary muscle fibers from mouse hearts (mouse, UniProt O70468 1-1270); assay: cell-based or functional assay
[3] = target: B1; assay: solid phase binding assay; competition with S2^126 on adsorbed C0-C2
[4] = target: B1; assay: solid phase binding assay; peptide 0-20 µM against 20 µM S2^126 on adsorbed C0-C2
[5] = target: B2; assay: ITC; 300 µM S2^126 titrated into 20 µM C0-C2
[6] = target: B1; assay: ITC; 300 µM S2^126 titrated into 20 µM C0-C2
C0-C2 protein = target: T2, C0-C2 protein (Homo sapiens, UniProt Q14896); assay: Isothermal titrating calorimetry (ITC); assay type: binding; settings: 300 μM S2^126 titrated to 20 μM C0-C2 protein; read-out: dissociation constant (kd)
T2 construct: 6X His; made in house; host or cells: E. coli BL21
T2 sequence (Q14896 1-451 limits assumed): as above
Description: Isothermal titrating calorimetry (ITC) was used to validate and verify the results from the SPBA assays of Example 2. In ITC experiments, the heat of binding between two proteins is measured by titrating one protein with the other protein and then measuring the heat released or absorbed through a reference fluid with a constant temperature. By titrating 300 μM of S2^126 to 20 μM of C0-C2 protein, the stoichiometry (η) of 0.98 and dissociation constant (kd) of 4.7 μM for S2^126-C0-C2 binding were determined.
Using the above stoichiometry and dissociation constant values as controls, all of the experimental peptides were titrated at 300 μM with 20 μM of C0-C2 protein and compared with the above S2^126 control.

[7] = target: B1; assay: solid phase binding assay, competition: C0-C2 adsorbed on the plate, 20 µM S2^126 as competitor plus rising peptide; bound S2^126 detected with rabbit anti-S2^126 and Alexa Fluor 568 secondary antibody (Fluorescence Endpoint λ603, relative)
[8] = at 20 μM peptide, 20 μM S2^126, 20 μM C0-C2 adsorbed

CDQLIKNKIQLEAKVKEMTERLEDEEEMNAELTAKK (listed as Mus musculus) [Amg 23005]
ability to compete for S2^126-C0-C2 binding (S2^126-C0-C2 binding): effectively compete
relative fluorescence (S2^126-C0-C2 binding; [8]): 0
effect on muscle / contractile function [1]: successfully improved muscle function

ETEKEMAMVSLLQAEERCDQDIDDLELTLAK [Amg 23050, scramble control peptide, reference compound]
ability to compete for S2^126-C0-C2 binding (S2^126-C0-C2 binding): unable to compete

PLLKSAETEKEMANMKEEFGRVKDALEKSEARRKELEEKM (listed as Mus musculus) [Amg 23003]
ability to compete for S2^126-C0-C2 binding (S2^126-C0-C2 binding): unable to compete

RKELEEKMVSLLQEKNDLQLQVQAEQDNLNDAEERCDQLIKNK (listed as Mus musculus) [Amg 23004]
ability to compete for S2^126-C0-C2 binding (S2^126-C0-C2 binding): unable to compete

VKEMTERLEDEEEMNAELTAKK (listed as Mus musculus) [Amg 27119]
ability to compete for S2^126-C0-C2 binding (S2^126-C0-C2 binding): effectively compete
relative fluorescence (S2^126-C0-C2 binding; at peptide concentrations above 15 μM): 0
increase of maximal force produced by the fibers ([1]; peptide 10 μM and 20 μM versus control, particularly at higher calcium concentrations): about 30%
effect on muscle / contractile function [1]: highly effective in improving contractile function

VKEMTERLEDEEEMNAELTAKKRKLEDECSELKKDIDDLELTLAK (listed as Mus musculus) [Amg 23006]
ability to compete for S2^126-C0-C2 binding (S2^126-C0-C2 binding): effectively compete
relative fluorescence (S2^126-C0-C2 binding; [8]): 0
effect on muscle / contractile function [1]: successfully improved muscle function

CDQLIKNKIQLEAKVKEMTERLEDEEEMNAELTAKK [Amg 23005]
maximal force produced by skinned papillary muscle fibers (Fmax) [2]: 13%
rate of force redevelopment (ktr) at pCa 5.7 [2]: 1.5 fold
stoichiometry [3]: 1

DEEEMNAELTAKKR [Amg 27117]
relative fluorescence [4]: ~1 relative fluorescence

RKELEEKMVSLLQEKNDLQLQVQAEQDNLNDAEERCDQLIKNK [Amg 23004]
relative fluorescence [4]: ~1 relative fluorescence

KLEDECSELKKDIDDLELTLAK [Amg 27118]
relative fluorescence [4]: ~1 relative fluorescence

B1
Kd [5]: 4.7 µM

B2
stoichiometry (η) [6]: 0.98

B3: PLLKSAETEKEMANMKEEFGRVKDALEKSEARRKELEEKMVSLLQEKNDLQLQVQAEQDNLNDAEERCDQLIKNKIQLEAKVKEMTERLEDEEEMNAELTAKKRKLEDECSELKKDIDDLELTLAK (protein, listed as Mus musculus)
chain: PLLKSAETEKEMANMKEEFGRVKDALEKSEARRKELEEKMVSLLQEKNDLQLQVQAEQDNLNDAEERCDQLIKNKIQLEAKVKEMTERLEDEEEMNAELTAKKRKLEDECSELKKDIDDLELTLAK
modifications: 6X His tag
notes: recombinant proximal 126 amino acid fragment of myosin S2 with 6X his-tag, expressed in E. coli
Kd (C0-C2 protein): 4.7 µM

VKEMTERLEDEEEMNAELTAKKRKLEDECSELKKDIDDLELTLAK [Amg 23006]
maximal force produced by skinned papillary muscle fibers (Fmax) [2]: 13%
rate of force redevelopment (ktr) at pCa 5.7 [2]: 1.5 fold
stoichiometry [3]: 1

ETEKEMAMVSLLQAE [Amg 27120]
relative fluorescence [4]: ~1 relative fluorescence

PLLKSAETEKEMANMKEEFGRVKDALEKSEARRKELEEKM [Amg 23003]
relative fluorescence [4]: ~1 relative fluorescence

VKEMTERLEDEEEMNAELTAKK (also called myopeptide) [Amg 27119 (mouse myosin S2 subset)]
maximal force produced by skinned papillary muscle fibers (Fmax) [2]: ~30%
rate of force redevelopment (ktr) at pCa 5.7 [2]: 2.5 fold
IC50 (read off the curve) [7]: ~6 µM

ETEKEMAMVSLLQAEERCDQDIDDLELTLAK [Scramble control Amg 25030]
relative fluorescence [4]: ~1 relative fluorescence
